Patent US20250171534A1 (D2M BIOTHERAPEUTICS, published 2025)

Columns and labels:
[1] = biological target: T1, cynomolgus (monkey) LILRB2 expressed on CHO cells (cynomolgus monkey); experiment: flow cytometry on CHO-cynoLILRB2 cells
T1 construct: whole, on cells; Putative orthologue; also called cynoLILRB2; cynoRB2

[2] = biological target: T2, LILRB1-ECD-HIS (SinoBiological Cat #: 16014-H02H) (human, UniProt Q8NHL6 24-461); experiment: SPR (Carterra), LILRB1-ECD-his
T2 construct: Bought protein; also called monomeric antigen LILRB1-ECD-HIS; not shown: His tag

[3] = biological target: T3, LILRB2-ECD-HIS (SinoBiological Cat #: 14132-H02H) (human, UniProt Q8N423 22-460); experiment: SPR (Carterra), LILRB2-ECD-his
T3 construct: Bought protein; also called monomeric antigen LILRB2-ECD-HIS; not shown: His tag

[4] = biological target: T4, human LILRB1 expressed on cells (human, UniProt Q8NHL6 24-650); experiment: flow cytometry, CHO-LILRB1 cells
T4 construct: In 293T cells it was expressed from pCMV3-LILRB1-GFP; also called CHO-LILRB1; Jurkat-LILRB1

[5] = biological target: T4, human LILRB1 expressed on cells; experiment: flow cytometry, Jurkat-LILRB1 cells
[6] = biological target: T2, LILRB1-ECD-HIS (SinoBiological Cat #: …); experiment: BLI (Gator), trace labelled 5 µg/mL; unit taken from the Average KD line
[7] = biological target: T3, LILRB2-ECD-HIS (SinoBiological Cat #: …); experiment: as above
[8] = biological target: T2, LILRB1-ECD-HIS (SinoBiological Cat #: …); experiment: BLI (Gator), trace labelled 0.5 µg/mL; unit taken from the Average KD line
[9] = biological target: T2, LILRB1-ECD-HIS (SinoBiological Cat #: …); experiment: BLI (Gator Prime), antibody on anti-hIgG Fc probe, monomeric LILRB1-ECD-HIS in solution
[10] = biological target: T3, LILRB2-ECD-HIS (SinoBiological Cat #: …); experiment: BLI (Gator Prime), antibody on anti-hIgG Fc probe, monomeric LILRB2-ECD-HIS in solution
[11] = biological target: T5, LILRA1 expressed on cells (human, UniProt O75019 17-489); experiment: flow cytometry on CHO-LILRA1 cells, non-linear fit of the curves of FIG. 26E
T5 construct: whole, on cells; GFP-tagged; also called human LILRA1; CHO-LILRA1

[12] = biological target: T4, human LILRB1 expressed on cells; experiment: flow cytometry on CHO-LILRB1 cells, non-linear fit of the curves of FIG. 26A
[13] = biological target: T6, human LILRB2 expressed on cells (human, UniProt Q8N423 22-597); experiment: flow cytometry on CHO-LILRB2 cells, non-linear fit of the curves of FIG. 26B
T6 construct: In 293T cells it was expressed from pCMV3-LILRB2-GFP; also called CHO-LILRB2; Jurkat-LILRB2

[14] = biological target: T7, LILRB3 expressed on cells (human, UniProt O75022 24-631); experiment: flow cytometry on CHO-LILRB3 cells, non-linear fit of the curves of FIG. 26C
T7 construct: whole, on cells; Expressed with a GFP tag from the bought plasmid; also called human LILRB3; CHO-LILRB3

[15] = biological target: T4, human LILRB1 expressed on cells; experiment: flow cytometry, CHO-LILRB1 cells; blocked ligand: APC HLA-G trimer tetramer
[16] = biological target: T4, human LILRB1 expressed on cells; experiment: flow cytometry, Jurkat-LILRB1 cells; blocked ligand: APC HLA-G trimer tetramer
[17] = biological target: T6, human LILRB2 expressed on cells; experiment: flow cytometry, Jurkat-LILRB2 cells; blocked ligand: APC HLA-G monomer tetramer
[18] = biological target: T6, human LILRB2 expressed on cells; experiment: as above; remark: listed apart in the source
[19] = biological target: T6, human LILRB2 expressed on cells; experiment: flow cytometry on CHO-LILRB2 cells (CHO-RB2), titrated antibody, labelled anti-human Fc, gMFI
[20] = biological target: T5, LILRA1 expressed on cells; experiment: flow cytometry on CHO-LILRA1 cells (CHO-RA1), titrated antibody, labelled anti-human Fc, gMFI
[21] = biological target: T8, LILRA3 expressed on 293T cells (UniProt Q8N6C8 24-439, limits assumed); experiment: flow cytometry on 293T cells transiently expressing LILRA3, APC anti-human Fc; gMFI as fold to IgG staining
T8 construct: whole, on cells; GFP-tagged, transient

[22] = biological target: T9, LILRA5 expressed on 293T cells (UniProt A6NI73 42-299, limits assumed); experiment: flow cytometry on 293T cells transiently expressing LILRA5, APC anti-human Fc; gMFI as fold to IgG staining
T9 construct: whole, on cells; GFP-tagged, transient
T9 sequence (A6NI73 42-299 limits assumed): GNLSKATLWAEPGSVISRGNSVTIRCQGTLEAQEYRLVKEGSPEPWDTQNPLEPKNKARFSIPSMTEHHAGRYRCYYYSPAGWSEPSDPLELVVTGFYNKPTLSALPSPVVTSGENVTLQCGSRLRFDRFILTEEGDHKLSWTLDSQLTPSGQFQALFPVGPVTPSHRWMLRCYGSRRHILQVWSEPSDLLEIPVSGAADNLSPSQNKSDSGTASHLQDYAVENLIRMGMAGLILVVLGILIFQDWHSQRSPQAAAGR

T2 sequence (Q8NHL6 other isoform, or with tags, fused parts or gaps H02H H02H): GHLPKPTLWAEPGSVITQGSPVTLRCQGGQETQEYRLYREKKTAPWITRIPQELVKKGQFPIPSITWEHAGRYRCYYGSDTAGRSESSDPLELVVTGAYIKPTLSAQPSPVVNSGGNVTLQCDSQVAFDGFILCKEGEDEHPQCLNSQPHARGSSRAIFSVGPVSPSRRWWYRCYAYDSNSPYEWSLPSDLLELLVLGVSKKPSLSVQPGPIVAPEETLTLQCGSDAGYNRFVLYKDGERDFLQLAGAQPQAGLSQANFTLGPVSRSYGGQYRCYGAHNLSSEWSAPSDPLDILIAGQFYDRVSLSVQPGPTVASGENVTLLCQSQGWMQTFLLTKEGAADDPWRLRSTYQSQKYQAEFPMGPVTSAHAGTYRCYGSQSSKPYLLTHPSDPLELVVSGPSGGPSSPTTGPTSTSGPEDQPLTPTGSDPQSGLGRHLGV
T4 sequence (Q8NHL6 other isoform, or with tags, fused parts or gaps limits assumed): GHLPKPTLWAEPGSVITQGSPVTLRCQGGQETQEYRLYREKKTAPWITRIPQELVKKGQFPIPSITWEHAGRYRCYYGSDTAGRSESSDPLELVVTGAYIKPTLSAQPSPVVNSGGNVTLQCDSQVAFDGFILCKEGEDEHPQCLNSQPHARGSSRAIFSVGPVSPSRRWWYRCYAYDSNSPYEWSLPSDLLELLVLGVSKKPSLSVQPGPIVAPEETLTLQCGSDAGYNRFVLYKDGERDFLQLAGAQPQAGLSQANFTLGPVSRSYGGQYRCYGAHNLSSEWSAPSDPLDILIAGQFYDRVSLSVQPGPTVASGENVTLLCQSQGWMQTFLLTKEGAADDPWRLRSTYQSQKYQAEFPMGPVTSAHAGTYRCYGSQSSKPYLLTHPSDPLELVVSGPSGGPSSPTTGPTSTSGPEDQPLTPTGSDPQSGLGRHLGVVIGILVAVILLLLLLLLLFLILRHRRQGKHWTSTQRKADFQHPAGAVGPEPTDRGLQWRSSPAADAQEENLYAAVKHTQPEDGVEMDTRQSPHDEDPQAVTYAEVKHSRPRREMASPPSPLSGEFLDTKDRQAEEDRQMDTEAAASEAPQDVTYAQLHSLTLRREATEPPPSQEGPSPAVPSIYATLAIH
T6 sequence (Q8N423 other isoform, or with tags, fused parts or gaps limits assumed): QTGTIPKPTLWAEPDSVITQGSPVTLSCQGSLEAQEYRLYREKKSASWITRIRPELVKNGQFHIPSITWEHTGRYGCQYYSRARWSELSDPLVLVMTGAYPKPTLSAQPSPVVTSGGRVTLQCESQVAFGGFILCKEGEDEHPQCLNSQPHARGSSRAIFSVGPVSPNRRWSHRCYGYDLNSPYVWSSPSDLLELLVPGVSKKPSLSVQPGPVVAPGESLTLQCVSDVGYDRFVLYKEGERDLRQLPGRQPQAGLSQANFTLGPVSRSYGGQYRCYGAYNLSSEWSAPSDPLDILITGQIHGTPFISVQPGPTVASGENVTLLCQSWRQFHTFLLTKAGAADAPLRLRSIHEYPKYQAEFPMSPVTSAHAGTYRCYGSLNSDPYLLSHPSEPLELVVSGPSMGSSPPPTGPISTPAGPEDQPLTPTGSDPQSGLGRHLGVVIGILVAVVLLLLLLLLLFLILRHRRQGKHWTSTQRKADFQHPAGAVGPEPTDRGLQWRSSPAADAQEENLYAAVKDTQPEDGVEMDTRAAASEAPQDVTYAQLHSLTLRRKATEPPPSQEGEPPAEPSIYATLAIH
T3 sequence (Q8N423 other isoform, or with tags, fused parts or gaps H02H H02H): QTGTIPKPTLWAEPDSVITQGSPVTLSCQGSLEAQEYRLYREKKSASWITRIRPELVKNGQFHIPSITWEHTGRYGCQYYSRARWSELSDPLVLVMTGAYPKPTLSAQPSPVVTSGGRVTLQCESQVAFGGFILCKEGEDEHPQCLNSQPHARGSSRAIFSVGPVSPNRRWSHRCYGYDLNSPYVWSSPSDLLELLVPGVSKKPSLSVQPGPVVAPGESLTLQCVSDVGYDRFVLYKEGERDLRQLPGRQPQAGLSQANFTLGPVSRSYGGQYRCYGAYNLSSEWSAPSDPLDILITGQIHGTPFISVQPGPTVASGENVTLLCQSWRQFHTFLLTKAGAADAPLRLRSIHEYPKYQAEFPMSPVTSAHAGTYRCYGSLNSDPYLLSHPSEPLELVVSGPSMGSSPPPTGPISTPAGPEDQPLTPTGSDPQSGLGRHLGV
T5 sequence (O75019 17-489): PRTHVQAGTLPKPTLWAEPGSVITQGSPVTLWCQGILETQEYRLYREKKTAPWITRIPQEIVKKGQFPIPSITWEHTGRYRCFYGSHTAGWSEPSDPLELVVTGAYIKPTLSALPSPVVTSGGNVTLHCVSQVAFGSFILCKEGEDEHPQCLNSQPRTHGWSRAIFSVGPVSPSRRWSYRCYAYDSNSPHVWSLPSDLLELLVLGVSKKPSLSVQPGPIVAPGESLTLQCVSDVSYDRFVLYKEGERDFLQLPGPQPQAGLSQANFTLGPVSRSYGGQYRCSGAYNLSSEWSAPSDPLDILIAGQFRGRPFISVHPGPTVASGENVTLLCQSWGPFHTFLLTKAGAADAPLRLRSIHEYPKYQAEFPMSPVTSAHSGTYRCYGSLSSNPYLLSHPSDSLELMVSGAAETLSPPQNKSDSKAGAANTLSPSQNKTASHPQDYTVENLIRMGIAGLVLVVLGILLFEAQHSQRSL
T8 sequence (Q8N6C8 24-439 limits assumed): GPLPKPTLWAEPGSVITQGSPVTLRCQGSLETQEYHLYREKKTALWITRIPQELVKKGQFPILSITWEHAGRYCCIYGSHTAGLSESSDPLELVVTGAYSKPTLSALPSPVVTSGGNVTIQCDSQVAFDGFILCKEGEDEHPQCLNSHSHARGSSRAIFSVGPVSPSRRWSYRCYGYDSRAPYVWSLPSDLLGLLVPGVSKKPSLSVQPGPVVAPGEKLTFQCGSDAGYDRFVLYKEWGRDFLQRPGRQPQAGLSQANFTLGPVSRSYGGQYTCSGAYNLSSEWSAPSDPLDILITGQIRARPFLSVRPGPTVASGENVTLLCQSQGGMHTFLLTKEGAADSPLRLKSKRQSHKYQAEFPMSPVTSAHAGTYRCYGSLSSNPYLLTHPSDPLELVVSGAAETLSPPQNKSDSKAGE

B1: D2M002-002 (antibody, V domains shown)
VH: EVQLQQSGPELVKPGASVKMSCKASGYTFTRYVMHWVKQKPGQGLEWIGYINPNNDGTKYNEKFKGKVTLTSDKSSSTAYMELSSLTSEDSAVYYCARGDLEILPYYDHARNAMDYWGQGTSVTVSS
VL: DVQMIQSPASLSASVGETVTITCRASENIYSYLAWYQQKQGKSPQLLVYNAKTLAEGVPSRFSGSGSGTQFSLKINSLQPEDFGSYYCQHFWSTPPTFGGGTKLEIK
notes: Hit from immunised mice; also called clone #2; anti-LILRB1/2 clone #2
EC50 [1]: 5.5 µg/mL
Kd [2]: 5.67 nM
koff [2]: 0.000347 s⁻¹
kon [2]: 61300 M⁻¹ s⁻¹
Kd [3]: 0.44 nM
koff [3]: 0.0002 s⁻¹
kon [3]: 456000 M⁻¹ s⁻¹
EC50 [4]: 0.439 µg/mL
gMFI (max) [4]: 35700
EC50 [5]: 0.754 µg/mL
Kd [6]: 3.61 nM
Kd [7]: 0.351 nM
Kd [8]: 3.13 nM
Kd [9]: 3.4 nM
Kd [10]: 0.286 nM
EC50 [11]: 0.474 µg/mL
MaxMFI [11]: 19500
EC50 [12]: 0.218 µg/mL
MaxMFI [12]: 110000
EC50 [13]: 0.128 µg/mL
MaxMFI [13]: 32600
EC50 [14]: 12.8 µg/mL
IC50 [15]: 0.208 µg/mL
IC50 [16]: 0.191 µg/mL
IC50 (read off the curve) [17]: ~0.06 µg/mL
IC50 [18]: 0.065 µg/mL
EC50 (read off the curve) [19]: ~0.1 µg/mL
EC50 (read off the curve) [20]: ~0.5 µg/mL
binding result [21]: no binding (tested: 5 µg/mL)
binding result [22]: no binding (tested: 5 µg/mL)
